T1: DprA R123E (Riemerella anatipestifer ATCC11845, UniProt E4TBU2 1-367, R123E)
T1 sequence: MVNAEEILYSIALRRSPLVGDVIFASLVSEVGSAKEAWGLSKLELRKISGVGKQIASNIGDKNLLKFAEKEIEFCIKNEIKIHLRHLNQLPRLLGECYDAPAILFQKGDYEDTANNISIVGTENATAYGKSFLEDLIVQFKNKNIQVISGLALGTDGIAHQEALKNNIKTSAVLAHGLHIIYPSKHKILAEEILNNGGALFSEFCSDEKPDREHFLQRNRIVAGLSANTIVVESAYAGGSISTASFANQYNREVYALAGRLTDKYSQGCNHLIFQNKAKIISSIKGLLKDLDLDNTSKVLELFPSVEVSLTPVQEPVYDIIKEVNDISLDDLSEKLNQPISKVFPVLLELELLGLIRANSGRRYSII


Target: T1, DprA R123E
Experiment: EMSA; up to 20 uM DprA R123E; 25 mM HEPES pH 7.0, 150 mM NaCl, 10% glycerol, 1 mM DTT, 0.05% IGEPAL, 30 min at 30 C; 8% native PAGE in 0.5x TBE on ice
Conditions: protein: recombinant, tags: C-terminal His6, chain copies: 2, label: biotin

Binder	binding result	binding result (blunt)
TAGGCTCTGCTAAGGAAGCGTGGGGTCTGTCTAAGTTGGA (ssDNA) [RA-ssDNA1]	no binding	–
AAAAACTACGGAACTGACTAAAGGCAGAAAAACTAAACGG (ssDNA) [RA-ssDNA2]	no binding	–
dsDNA annealed from RA-ssDNA1 (dsDNA) DNA 1: TAGGCTCTGCTAAGGAAGCGTGGGGTCTGTCTAAGTTGGA DNA 2: TCCAACTTAGACAGACCCCACGCTTCCTTAGCAGAGCCTA	–	no binding

From PMC6533540, “DprA Is Essential for Natural Competence in Riemerella anatipestifer and Has a Conserved Evolutionary Mechanism”
